Source: the Immune Epitope Database (IEDB)

Legend:
HLA-A*02:03 = test: IEDB peptide-MHC binding, purified MHC/competitive/fluorescence; filed as Kd, often an IC50 or EC50 that approximates it; ≥ and ≤ were set here for values at or beyond the usual limits of such assays
HLA-B*57:01 [1] = test: as above; conditions: source organism: Human immunodeficiency virus 1
HLA-A*26:02 = test: as above; conditions: source organism: Human immunodeficiency virus 1
HLA-A*30:01 = test: as above; conditions: source organism: Human immunodeficiency virus 1
HLA-B*15:01 [2] = test: as above; conditions: source organism: Human immunodeficiency virus 1
HLA-B*18:01 [3] = test: as above; conditions: source organism: Human immunodeficiency virus 1
HLA-A*01:01 [4] = test: as above; conditions: source organism: Human immunodeficiency virus 1
HLA-A*02:06 = test: as above; conditions: source organism: Human immunodeficiency virus 1
HLA-B*35:01 = test: as above; conditions: source organism: Human immunodeficiency virus 1
HLA-A*11:01 = test: as above
HLA-C*04:01 = test: as above; conditions: source organism: Burkholderia pseudomallei S13
HLA-B*83:01 = test: as above; conditions: source organism: Burkholderia pseudomallei S13
HLA-A*23:01 = test: as above; conditions: source organism: Burkholderia pseudomallei S13
HLA-B*15:42 = test: as above; conditions: source organism: Burkholderia pseudomallei S13
HLA-B*45:06 = test: as above; conditions: source organism: Burkholderia pseudomallei S13
HLA-A*24:02 = test: IEDB peptide-MHC binding, cellular MHC/competitive/fluorescence; ≥ and ≤ were set here for values at or beyond the usual limits of such assays; conditions: source organism: Human herpesvirus 5 strain AD169
HLA-A*68:01 = test: IEDB peptide-MHC binding, purified MHC/competitive/radioactivity; ≥ and ≤ were set here for values at or beyond the usual limits of such assays; conditions: source organism: Hepacivirus hominis
HLA-A*31:01 = test: IEDB peptide-MHC binding, purified MHC/competitive/fluorescence; filed as Kd, often an IC50 or EC50 that approximates it; ≥ and ≤ were set here for values at or beyond the usual limits of such assays; conditions: source organism: Brucella abortus S19
HLA-A*26:03 = test: as above; conditions: source organism: Brucella abortus S19
HLA-A*03:01 = test: IEDB peptide-MHC binding, purified MHC/direct/fluorescence; filed as Kd, often an IC50 or EC50 that approximates it; ≥ and ≤ were set here for values at or beyond the usual limits of such assays; conditions: source organism: Brucella abortus 2308
HLA-B*15:17 = test: as above; conditions: source organism: Brucella abortus 2308
HLA-B*57:01 [5] = test: as above; conditions: source organism: Brucella abortus 2308
HLA-B*07:02 = test: as above; conditions: source organism: Brucella abortus 2308
HLA-A*02:01 = test: as above; conditions: source organism: Brucella abortus 2308
HLA-B*58:01 = test: as above; conditions: source organism: Brucella abortus 2308
HLA-B*48:01 = test: as above; conditions: source organism: Brucella abortus 2308
HLA-B*27:05 = test: as above; conditions: source organism: Brucella abortus 2308
HLA-B*15:01 [6] = test: as above; conditions: source organism: Brucella abortus 2308
HLA-B*18:01 [7] = test: as above; conditions: source organism: Brucella abortus 2308
HLA-B*73:01 [8] = test: as above; conditions: source organism: Brucella suis 1330
HLA-A*01:01 [9] = test: as above; conditions: source organism: Brucella abortus 2308
HLA-A*68:02 = test: as above; conditions: source organism: Brucella abortus 2308
HLA-A*69:01 = test: as above; conditions: source organism: Brucella abortus 2308
HLA-B*08:01 = test: as above; conditions: source organism: Brucella suis 1330
HLA-B*39:01 = test: as above; conditions: source organism: Brucella suis 1330
HLA-B*73:01 [10] = test: IEDB peptide-MHC binding, purified MHC/competitive/fluorescence; filed as Kd, often an IC50 or EC50 that approximates it; ≥ and ≤ were set here for values at or beyond the usual limits of such assays; conditions: source organism: Escherichia coli O157:H7 str. Sakai
HLA-A*01:01 [11] = test: IEDB peptide-MHC binding, purified MHC/competitive/radioactivity; ≥ and ≤ were set here for values at or beyond the usual limits of such assays; conditions: source organism: Homo sapiens
[12] = source organism: Human immunodeficiency virus 1
[13] = source organism: Brucella abortus S19

RSLFNTVAVLY
Kd (HLA-A*02:03; [12]): 644 nM | Kd (HLA-B*57:01 [1]): 676 nM | Kd (HLA-A*26:02): 3070 nM | Kd (HLA-A*30:01): 2960 nM | Kd (HLA-B*15:01 [2]): 907 nM | Kd (HLA-B*18:01 [3]): 360 nM | Kd (HLA-A*01:01 [4]): ≥ 20000 nM | Kd (HLA-A*02:06): 952 nM | Kd (HLA-B*35:01): 387 nM | Kd (HLA-A*11:01; [12]): 1350 nM

GFYLSGHLF
Kd (HLA-C*04:01): ≥ 5000 nM | Kd (HLA-B*83:01): ≥ 5000 nM | Kd (HLA-A*23:01): ≤ 0.1 nM | Kd (HLA-B*15:42): ≥ 5000 nM | Kd (HLA-B*45:06): ≥ 5000 nM

VYYTSAFVF
IC50 (HLA-A*24:02): 35000 nM

QLFTFSPRR
IC50 (HLA-A*68:01): 2.6 nM

RMIESRMSK
Kd (HLA-A*02:03; [13]): ≥ 20000 nM | Kd (HLA-A*31:01): 60.7 nM | Kd (HLA-A*26:03): ≥ 20000 nM | Kd (HLA-A*11:01; [13]): 5.5 nM | Kd (HLA-A*03:01): 131 nM | Kd (HLA-B*15:17): ≥ 20000 nM | Kd (HLA-B*57:01 [5]): ≥ 20000 nM | Kd (HLA-B*07:02): ≥ 20000 nM | Kd (HLA-A*02:01): ≥ 20000 nM | Kd (HLA-B*58:01): ≥ 20000 nM | Kd (HLA-B*48:01): ≥ 20000 nM | Kd (HLA-B*27:05): 52.5 nM | Kd (HLA-B*15:01 [6]): 341 nM | Kd (HLA-B*18:01 [7]): ≥ 20000 nM | Kd (HLA-B*73:01 [8]): ≥ 20000 nM | Kd (HLA-A*01:01 [9]): ≥ 20000 nM | Kd (HLA-A*68:02): ≥ 20000 nM | Kd (HLA-A*69:01): ≥ 20000 nM | Kd (HLA-B*08:01): ≥ 20000 nM | Kd (HLA-B*39:01): ≥ 20000 nM

NEWYVQPQA
Kd (HLA-B*73:01 [10]): 67.3 nM

IVDSLTEMY
IC50 (HLA-A*01:01 [11]): 7 nM
